Laboratory results from US20230340146A1 (US Dept. of Health and Human Services, published 2023).

Assays:
[1] = target: T1, human GPC1 on cells (T3M4, KLM1, H8, 2B9) (human) (UniProt P35052); assay: flow cytometry on T3M4 pancreatic cancer cells, non-specific control IgG, goat anti-mouse IgG-PE
T1 sequence (looked up): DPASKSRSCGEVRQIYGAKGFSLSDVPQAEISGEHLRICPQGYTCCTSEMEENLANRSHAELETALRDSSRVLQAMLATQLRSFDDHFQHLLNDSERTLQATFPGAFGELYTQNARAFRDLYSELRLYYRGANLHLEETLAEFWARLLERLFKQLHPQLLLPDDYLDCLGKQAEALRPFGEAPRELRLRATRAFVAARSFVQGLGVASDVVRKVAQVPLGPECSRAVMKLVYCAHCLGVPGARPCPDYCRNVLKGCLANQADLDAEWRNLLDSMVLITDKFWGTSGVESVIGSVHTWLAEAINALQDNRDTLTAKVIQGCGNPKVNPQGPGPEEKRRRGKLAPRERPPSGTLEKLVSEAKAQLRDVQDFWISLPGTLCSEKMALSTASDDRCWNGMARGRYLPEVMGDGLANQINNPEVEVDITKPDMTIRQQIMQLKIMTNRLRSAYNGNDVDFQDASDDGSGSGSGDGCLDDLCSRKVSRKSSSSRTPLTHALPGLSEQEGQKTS

[2] = target: T1, human GPC1 on cells (T3M4, KLM1, H8, 2B9) (human); assay: cell-based or functional assay
human glypican-3 (GPC3) [3] = target: T2, human glypican-3 (GPC3) (human, UniProt P51654 25-559, limits assumed); assay: monoclonal phage ELISA on plate-coated glypicans
T2 construct: Named through 'human GPC1 through GPC6' in the methods; also called human GPC3; other human glypican members

human glypican-2 (GPC2) [4] = target: T3, human glypican-2 (GPC2) (human, UniProt Q8N158 24-554, limits assumed); assay: monoclonal phage ELISA on plate-coated glypicans
T3 construct: Named through 'human GPC1 through GPC6' in the methods; also called human GPC2; other human glypican members
T3 sequence (looked up): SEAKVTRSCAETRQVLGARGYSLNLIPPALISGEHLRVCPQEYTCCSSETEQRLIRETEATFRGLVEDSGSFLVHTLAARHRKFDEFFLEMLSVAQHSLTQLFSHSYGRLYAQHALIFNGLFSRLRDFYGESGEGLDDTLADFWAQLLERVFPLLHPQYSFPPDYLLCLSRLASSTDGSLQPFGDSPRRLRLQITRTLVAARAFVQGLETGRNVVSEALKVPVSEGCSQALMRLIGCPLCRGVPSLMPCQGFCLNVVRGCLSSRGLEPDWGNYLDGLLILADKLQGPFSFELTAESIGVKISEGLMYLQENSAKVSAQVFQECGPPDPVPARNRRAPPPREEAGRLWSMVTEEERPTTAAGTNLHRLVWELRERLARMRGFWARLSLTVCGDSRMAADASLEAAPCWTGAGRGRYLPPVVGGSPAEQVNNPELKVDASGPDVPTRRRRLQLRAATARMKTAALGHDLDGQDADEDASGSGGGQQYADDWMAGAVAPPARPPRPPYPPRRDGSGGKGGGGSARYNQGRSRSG

human glypican-6 (GPC6) [5] = target: T4, human glypican-6 (GPC6) (human, UniProt Q9Y625 24-529, limits assumed); assay: monoclonal phage ELISA on plate-coated glypicans
T4 construct: Named through 'human GPC1 through GPC6' in the methods; also called human GPC6; other human glypican members
T4 sequence (looked up): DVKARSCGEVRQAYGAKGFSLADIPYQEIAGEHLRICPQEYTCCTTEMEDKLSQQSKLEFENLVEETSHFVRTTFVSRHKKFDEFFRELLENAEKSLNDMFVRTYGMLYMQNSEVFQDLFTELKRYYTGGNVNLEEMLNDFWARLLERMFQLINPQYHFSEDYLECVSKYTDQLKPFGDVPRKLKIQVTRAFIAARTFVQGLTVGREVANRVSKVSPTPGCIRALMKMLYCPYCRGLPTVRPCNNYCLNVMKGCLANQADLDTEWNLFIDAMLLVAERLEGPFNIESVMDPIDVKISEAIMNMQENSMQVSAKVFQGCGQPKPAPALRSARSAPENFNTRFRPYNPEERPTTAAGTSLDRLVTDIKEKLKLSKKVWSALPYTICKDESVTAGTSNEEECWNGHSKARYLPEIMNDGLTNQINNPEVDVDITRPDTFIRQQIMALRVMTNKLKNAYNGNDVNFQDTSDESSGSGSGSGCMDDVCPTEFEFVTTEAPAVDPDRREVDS

human glypican-5 (GPC5) [6] = target: T5, human glypican-5 (GPC5) (human, UniProt P78333 25-551, limits assumed); assay: monoclonal phage ELISA on plate-coated glypicans
T5 construct: Named through 'human GPC1 through GPC6' in the methods; also called human GPC5; other human glypican members
T5 sequence (looked up): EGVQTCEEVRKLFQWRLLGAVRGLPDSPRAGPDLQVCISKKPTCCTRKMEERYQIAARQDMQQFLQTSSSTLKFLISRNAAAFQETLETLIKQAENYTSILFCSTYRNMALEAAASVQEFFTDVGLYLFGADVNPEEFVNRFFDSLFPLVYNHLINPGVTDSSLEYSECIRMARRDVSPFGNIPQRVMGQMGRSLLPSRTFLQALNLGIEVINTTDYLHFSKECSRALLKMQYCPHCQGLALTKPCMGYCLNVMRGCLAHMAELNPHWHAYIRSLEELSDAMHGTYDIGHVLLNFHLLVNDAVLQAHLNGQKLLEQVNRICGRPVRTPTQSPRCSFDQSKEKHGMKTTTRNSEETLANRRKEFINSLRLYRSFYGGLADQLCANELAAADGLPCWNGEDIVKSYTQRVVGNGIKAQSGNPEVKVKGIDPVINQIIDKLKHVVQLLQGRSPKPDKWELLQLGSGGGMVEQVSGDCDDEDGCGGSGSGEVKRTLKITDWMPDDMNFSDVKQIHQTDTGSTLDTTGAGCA

mouse GPC1 protein = target: T6, mouse GPC1 protein (mouse, UniProt Q9QZF2 24-529, limits assumed); assay: monoclonal phage ELISA on plate-coated mouse GPC1
T6 sequence (looked up): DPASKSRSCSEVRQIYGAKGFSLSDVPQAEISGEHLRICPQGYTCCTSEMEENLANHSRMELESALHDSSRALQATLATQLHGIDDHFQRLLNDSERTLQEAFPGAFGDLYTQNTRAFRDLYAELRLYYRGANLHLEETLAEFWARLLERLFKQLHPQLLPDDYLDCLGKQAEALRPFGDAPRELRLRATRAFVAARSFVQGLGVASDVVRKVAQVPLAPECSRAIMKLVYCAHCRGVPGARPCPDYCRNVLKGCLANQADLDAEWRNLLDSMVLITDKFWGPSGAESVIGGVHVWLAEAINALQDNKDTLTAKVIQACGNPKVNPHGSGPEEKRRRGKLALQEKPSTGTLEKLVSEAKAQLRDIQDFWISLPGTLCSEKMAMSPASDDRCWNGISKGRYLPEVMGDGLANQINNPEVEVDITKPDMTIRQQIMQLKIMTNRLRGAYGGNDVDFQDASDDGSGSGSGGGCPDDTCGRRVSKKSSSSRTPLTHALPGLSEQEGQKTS

human glypican-4 (GPC4) [7] = target: T7, human glypican-4 (GPC4) (human, UniProt O75487 19-529, limits assumed); assay: ELISA on human GPC4, anti-FLAG detection
T7 construct: Named through 'human GPC1 through GPC6' in the methods; also called human GPC4; other human glypican members
T7 sequence (looked up): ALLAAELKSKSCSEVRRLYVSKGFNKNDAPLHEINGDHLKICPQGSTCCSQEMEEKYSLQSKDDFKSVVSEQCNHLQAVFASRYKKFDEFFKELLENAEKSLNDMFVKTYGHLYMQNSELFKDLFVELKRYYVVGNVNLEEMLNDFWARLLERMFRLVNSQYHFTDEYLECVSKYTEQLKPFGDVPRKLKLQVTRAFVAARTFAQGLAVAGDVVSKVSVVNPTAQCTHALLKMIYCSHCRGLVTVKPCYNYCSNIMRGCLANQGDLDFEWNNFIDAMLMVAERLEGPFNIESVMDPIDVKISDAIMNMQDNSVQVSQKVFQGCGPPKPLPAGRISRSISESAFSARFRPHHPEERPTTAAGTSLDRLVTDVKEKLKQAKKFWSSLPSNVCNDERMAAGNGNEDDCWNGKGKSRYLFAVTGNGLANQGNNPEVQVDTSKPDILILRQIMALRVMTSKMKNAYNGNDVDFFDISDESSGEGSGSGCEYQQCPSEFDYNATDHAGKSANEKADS
Procedure: (§1) Mouse hybridoma supernatant containing 1 µg/ml of each mAb was incubated with plates coated with human GPC1 through GPC6 purchased from R&D Systems. Binding was detected with a goat anti-mouse IgG conjugated with horseradish peroxidase (HRP) (Jackson ImmunoResearch). […] Binding was detected with an anti-FLAG HRP-conjugated antibody (Sigma-Aldrich). […] Recombinant human GPC1-hFc protein at concentrations of 5 µg/ml and 1 µg/ml were then added to the plate.

GPC1 peptide 14 = target: T8, GPC1 peptide 14; assay: ELISA on peptides of the GPC1 peptide library
T8 peptide: FRDLYSELRLYYRGANLH

GPC1 peptide 15 = target: T9, GPC1 peptide 15; assay: ELISA on peptides of the GPC1 peptide library
T9 peptide: LYYRGANLHLEETLAEFW

[8] = target: T10, recombinant human GPC1-hFc protein (human, UniProt P35052 24-530, limits assumed); assay: Octet (BLI), His-tagged D4 on Ni-NTA biosensor, serially diluted human GPC1-hFc in solution
T10 construct: Analyte in the Octet measurement of D4; not shown: human Fc (hFc)
T10 sequence (looked up): T1 sequence (looked up)
Procedure: (§2) Data analysis was performed using the FortéBio analysis software.

human glypican-4 (GPC4) [9] = target: T7, human glypican-4 (GPC4); assay: ELISA, plate coated with human GPC4
Procedure: as §1

His-tagged GPC1 protein = target: T11, His-tagged GPC1 protein (human, UniProt P35052 24-530, limits assumed); assay: Octet (BLI), His-tagged GPC1 on Ni-NTA biosensor, HM2 in solution
T11 construct: Immobilised on a Ni-NTA biosensor for the Octet measurement of HM2; also called human GPC1; not shown: His tag
T11 sequence (looked up): T1 sequence (looked up)
Procedure: as §2

GPC1 peptide 53 = target: T12, GPC1 peptide 53; assay: ELISA on peptides of the GPC1 peptide library
T12 peptide: DGCLDDLCSRKVSRKSSS

human glypican-3 (GPC3) [10] = target: T2, human glypican-3 (GPC3); assay: ELISA on plate-coated human glypicans, goat anti-mouse IgG-HRP
human glypican-2 (GPC2) [11] = target: T3, human glypican-2 (GPC2); assay: as above
human glypican-6 (GPC6) [12] = target: T4, human glypican-6 (GPC6); assay: as above
human glypican-5 (GPC5) [13] = target: T5, human glypican-5 (GPC5); assay: as above

## Neg ctrl (antibody)
[1]
  MFI: 7

B1: D4-IgG4 hinge-CD28 TM CAR (protein)
chain: HMQVQLVESGGGLVQPGGSLRLSCVASGYSYSIGYMAWFRQAPGKERAWVASRYTGDGGAVFDDAVKGRFTTSQESAGNTFDLQMDSLKPEDTAMYYCAAKGPGFGRWEYWGRGTQVTVSSTSESKYGPPCPPCPFWVLVVVGGVLACYSLLVTVAFIIFWVKRGRKKLLYIFKQPFMRPVQTTQEEDGCSCRFPEEEEGGCELRVKFSRSADAPAYQQGQNQLYNELNLGRREEYDVLDKRRGRDPEMGGKPRRKNPQEGLYNELQKDKMAEAYSEIGMKGERRRGKGHDGLYQGLSTATKDTYDALHMQALPPR
[2]
  cytolytic activity against T3M4 cells, difference to D4-IgG4 hinge-CD8 TM CAR T cells: 10%
  killing ability at high E:T ratio: 91.6%

B2: D4 camel single-domain antibody (VHH)
VHH: QVQLVESGGGLVQPGGSLRLSCVASGYSYSIGYMAWFRQAPGKERAWVASRYTGDGGAVFDDAVKGRFTTSQESAGNTFDLQMDSLKPEDTAMYYCAAKGPGFGRWEYWGRGTQVTVSS
notes: the methods describe D4 at 1 ug/ml detected with anti-FLAG; also called D4 antibody; D4 clone; not shown: FLAG and His tags (detected with anti-FLAG; 'His-tagged D4')
Human glypican-3 (GPC3) [3]
  binding result: no binding (tested: 1 µg/ml (per paragraph 203; not on the sheet))
Human glypican-2 (GPC2) [4]
  binding result: no binding (tested: 1 µg/ml (per paragraph 203; not on the sheet))
Human glypican-6 (GPC6) [5]
  binding result: no binding (tested: 1 µg/ml (per paragraph 203; not on the sheet))
Human glypican-5 (GPC5) [6]
  binding result: no binding (tested: 1 µg/ml (per paragraph 203; not on the sheet))
Mouse GPC1 protein
  binding result: binds
Human glypican-4 (GPC4) [7]
  binding result: no binding (tested: 1 µg/ml)
GPC1 peptide 14
  binding result: binds
GPC1 peptide 15
  binding result: binds
[8]
  Kd: 0.7 nM

B3: HM2 mouse monoclonal antibody (antibody, V domains shown)
VH: EVQLQQSGAELVRPGASVKLSCTASGFNIKDDYMHWVKQRPEQGLEWIGWIDPENGDTEYASKFQGKATITADTSSNTAYLQLSSLTSEDTAVYYCTRSSVGYWGQGTTLTVSS
VL: DVVMTQTPLSLPVSLGDQASISCRSSQSLVHSNGNTYLHWYLQKPGQSPKLLIYKVSNRFSGVPDRFSGSGSGTYFTLKISRVEAEDLGVYFCSQRTHVPYTFGGGTKLEIK
notes: Mouse monoclonal antibody (detected with goat anti-mouse IgG); also called HM2 mAb; HM2 clone
Human glypican-4 (GPC4) [9]
  binding result: no binding (tested: 1 µg/ml)
His-tagged GPC1 protein
  Kd: 0.4 nM
GPC1 peptide 53
  binding result: binds
Human glypican-3 (GPC3) [10]
  binding result: no binding (tested: 1 µg/ml)
Human glypican-2 (GPC2) [11]
  binding result: no binding (tested: 1 µg/ml)
Human glypican-6 (GPC6) [12]
  binding result: no binding (tested: 1 µg/ml)
Human glypican-5 (GPC5) [13]
  binding result: no binding (tested: 1 µg/ml)
